# Where “and” joins values, the source holds several entries; their conditions need not be identical. Equal values may be shown once.
# Legend:
# BmGr9 = molecular target: T1, BmGr9 (Bombyx mori, UniProt B3GTD7, I440C); assay: two-electrode voltage clamp in Xenopus oocytes, […] MTSET, cysteine modification; type: cell-based
# T1 construct: gene Gr9; full-length
# T1 sequence (B3GTD7 1-449 I440C): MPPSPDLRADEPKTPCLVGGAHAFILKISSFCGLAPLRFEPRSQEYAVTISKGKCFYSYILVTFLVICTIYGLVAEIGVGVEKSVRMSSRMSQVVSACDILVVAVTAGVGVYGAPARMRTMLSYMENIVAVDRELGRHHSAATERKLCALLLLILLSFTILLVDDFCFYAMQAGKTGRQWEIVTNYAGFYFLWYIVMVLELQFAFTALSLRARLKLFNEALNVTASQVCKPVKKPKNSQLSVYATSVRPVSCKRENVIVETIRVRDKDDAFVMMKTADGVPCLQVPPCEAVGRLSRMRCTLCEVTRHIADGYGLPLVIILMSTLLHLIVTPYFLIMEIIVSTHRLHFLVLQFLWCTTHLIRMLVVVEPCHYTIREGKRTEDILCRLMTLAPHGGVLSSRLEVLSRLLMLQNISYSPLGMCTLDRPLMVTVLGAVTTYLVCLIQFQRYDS
# [1] = molecular target: BmGr9 silkworm gustatory receptor (Bombyx mori (silkworm)); assay: cross-linking; HEK293T cells expressing BmGr9 incubated with various concentrations of disuccinimidyl suberate (DSS) at 37 °C for 15 min; lysed in 0.1% RIPA buffer; SDS-PAGE with 5 M urea; Western blot with anti-BmGr9 antibody
# [2] = molecular target: meGFP-BmGr9 (Bombyx mori (silkworm)); assay: single-molecule imaging, counting of photobleaching steps (TIRF microscopy); meGFP-BmGr9 on the plasma membrane of Xenopus oocytes; bleaching steps at single spots (n = 569) fitted with binomial distributions of tetramer, pentamer and hexamer models
compound,measurement,setting,value
"C[N+](C)(C)CCSS(C)(=O)=O [MTSET, 2-(trimethylammonium)ethyl methanethiosulfonate, bromide]","two-electrode voltage clamp in Xenopus oocytes, 2.5 mM MTSET, cysteine modificat",BmGr9,whereas the response of I440C was markedly inhibited by MTSET application
BmGr9 silkworm gustatory receptor,stoichiometry N,[1],2 and 4
meGFP-BmGr9 (receptor),stoichiometry N,[2],4
